{"source": "paper PMC10567702", "about": "“A concerted ATPase cycle of the protein transporter AAA-ATPase Bcs1” (Nature Communications, 2023)", "proteins": {"B1": {"name": "Bcs1 (mBcs1) (Mus musculus) (protein)", "chain": "MPFSDFVLALKDNPYFGAGFGLVGVGTALAMARKGAQLGLVAFRRHYMITLEVPARDRSYAWLLSWLTRHSTRTQHLSVETSYLQHESGRISTKFEFIPSPGNHFIWYQGKWIRVERNRDMQMVDLQTGTPWESVTFTALGTDRKVFFNILEEARALALQQEEGKTVMYTAVGSEWRTFGYPRRRRPLDSVVLQQGLADRIVKDIREFIDNPKWYIDRGIPYRRGYLLYGPPGCGKSSFITALAGELEHSICLLSLTDSSLSDDRLNHLLSVAPQQSLVLLEDVDAAFLSRDLAVENPIKYQGLGRLTFSGLLNALDGVASTEARIVFMTTNYIDRLDPALIRPGRVDLKEYVGYCSHWQLTQMFQRFYPGQAPSLAENFAEHVLKATSEISPAQVQGYFMLYKNDPMGAVHNIESLR"}}, "substrate": "Nc1ncnc2c1ncn2[C@@H]1O[C@H](COP(=O)(O)OP(=O)(O)OP(=O)(O)O)[C@@H](O)[C@H]1O", "experiment": "purified protein", "details": "conformational turnover per ring (printed as Vmax, maximum turnover rate), reconstituted membranes, 10 mM HEPES pH 7.5, 200 mM NaCl, 2 mM MgCl2, ambient temperature", "data": [{"protein": "B1", "values": [{"measurement": "Km", "result": 0.2, "unit": "µM"}, {"measurement": "kcat", "result": "~0.17", "unit": "s⁻¹"}]}]}
